The values that follow come from article doi:10.1101/127514.

For test [1], the target named is Alexa Fluor 647 maleimide-labeled LukS-K281C-Y113H (Staphylococcus aureus). Kind of test: single-molecule step-wise photobleaching.
The target in test [2] is human C5a receptor with C-terminal mGFP, on HEK cells (human) (UniProt P21730). Kind of test: single-molecule step-wise photobleaching.
Chain of UniProt P21730 (P21730 whole entry): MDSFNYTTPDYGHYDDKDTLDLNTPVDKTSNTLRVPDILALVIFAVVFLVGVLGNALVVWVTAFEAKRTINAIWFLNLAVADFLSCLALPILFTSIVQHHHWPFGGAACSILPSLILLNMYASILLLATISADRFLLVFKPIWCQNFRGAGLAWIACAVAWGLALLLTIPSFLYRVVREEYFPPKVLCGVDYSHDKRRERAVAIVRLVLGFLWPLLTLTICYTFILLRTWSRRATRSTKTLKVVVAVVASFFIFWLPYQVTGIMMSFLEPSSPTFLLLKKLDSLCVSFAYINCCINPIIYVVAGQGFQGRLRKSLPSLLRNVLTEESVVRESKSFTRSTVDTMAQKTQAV

What is called stoichiometry N is a count of units in the complex or per binding partner. In turn, “Alexa Fluor 647 maleimide-labeled LukS-K281C-Y113H (natural protein)” gave a stoichiometry N in test [1] of 3.9 molecules. Besides, the stoichiometry N (hC5aR molecules per LukS molecule) in test [2] lay in the range of 4 to 5.
